One substance from article PMC9910500 can be followed below.

This experiment has as its target endogenous p32 (ASF/SF2 splicing factor-associated protein) (human (endogenous in HEK293T)) (UniProt Q07021). Put plainly: co-IP.
Sequence of UniProt Q07021 (Q07021 74-282): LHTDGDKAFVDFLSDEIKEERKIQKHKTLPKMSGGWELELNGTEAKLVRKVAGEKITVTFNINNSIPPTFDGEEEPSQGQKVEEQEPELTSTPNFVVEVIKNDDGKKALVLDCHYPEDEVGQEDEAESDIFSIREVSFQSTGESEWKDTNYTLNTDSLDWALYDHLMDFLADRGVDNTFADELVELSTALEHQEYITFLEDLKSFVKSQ

As for RNA polymerase II (RNAPII) (complex), the increase of RNAPII co-precipitated with p32 in the presence of Tat was determined as 50%.
